1 protein from article PMC6814019 (Molecular cell, 2019) can be followed below.

The data set concerns the molecule itself. The data set is described as follows: native MS.

“And” between values parts separate entries of the source, which are not always exact repeats. Equal entries are not always repeated.

B1: C. elegans MORC-1 (8x-His-MBP-CeMORC) (natural protein, UniProt Q23243 1-845, looked up)
chain: MPNDTNGDDYKKLEKASVNLNFLKSNSHTHIGPLSAIAELVDNAYDADARDLHIDFLDINNEQFLELRDDGLGMAREEALHAITFGHSAKCSYKIGRYGNGLKSGAFHLGRELLLVTKKDGIITALLISHRFHEDQGLTNSVFVPCPSFDLDGIPICQTESEKDRFNLEMKIIGKYAPLGSRTLAELADKITGSTGTIIIIGNLRRSVTGELAINTTKDPTDIIVDSGEENKPWRESLRKYLEFIYLKPRMRIHVRGEQVLPKRISENWIAKKQQLISGDQFTAAYNKILDEKNETVKKCEEEKALVMSEIGGTNYTSVRREDRANQKSLRLRVDTSQKNLDSAIADRDAFKKEGKSEKSFHLNMGIETKDRSNNGIHFYINNRLILWGNKEAKFFSKFANSIGISMFLSLDYSLFSAAQNKQGFDHVKDFQVLVRKCNDALRDYSMYLEKSWIPTHLKNTWNVRIYEGDDVWAVLWGVYGYNNTTSTTCVQTHDSARDQVMWTTCGIWKLCQMCRTWIKASRPNEIVGSNDDFFCCENVNHHGCRTIVAEDNDFSKLPEKYDHILPQKRLTNSAPSSSDSQNSIRSASSCSSSSRLLNVAKIESHERIHSSTGGHRLGESFSTTSVKMEPIPNNAHDSHIAEVQRRHSTGRAISPAVSEISRRAGTAPSSQLDMIMGEESDESQEALTIRAPRQRAKRPIERVSRRNRRDQSDDDSDSENEERYATAPKKSKVKGKAVVRAPKMTREKWLEEMLNQFLTAHGEQPLPKNGQRDFDPTNIVEQTSRRNFKNNQRIVDAQQAIMRQIGSVLDHLKRNPTHNFKIPASGTVEEKLKNIEHQIKGKKK
One may read the stoichiometry N as the number of molecules, sites or subunits per partner or assembly. Take B1: the “stoichiometry N” value is 2 and 3 and 4.
